Results from the supplement of paper PMC10126150.
± gives the standard deviation of the averaged measurements.

System: ATP
Experiment: switch fluorescence ratio, 500 uM ATP over buffer (Cy3 cluster intensity, sum of 5 cycles each) (fold (ratio)); higher = stronger signal-on switching upon ATP binding; sequences stand for … in TCGTCGGCAGCGTCAGATGTGTATAAGAGACAGTTTTTTTTTTTTTTTTTTTTTTTTT…TC
Settings: aptamer strand: ATP DNA aptamer (quencher-CACCTGGGGGAGTATTGCGGAGGAAGG + anchor), 100 nM annealed; ATP concentration: 500 uM
Summary of the method: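 For every switch-domain sequence, the fluorescence ratio is the mean of per-cluster values, each being summed target-cycle Cy3 intensity over summed buffer-cycle Cy3 intensity. Clusters outside 100-1000 RFU were excluded. On a modified Illumina MiSeq flow-cell, the Cy3-labelled switching-strand clusters were annealed to 100 nM quencher-labelled ATP aptamer, imaged in selection buffer and then after 15 min with 500 uM ATP at 22 °C. Five such cycles were run, with NaOH stripping and re-annealing between them.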
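Note: ATP exposure 15 min at 22 °C before imaging.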

| Sequence | switch fluorescence ratio |
| --- | --- |
| GGTTATGGTA | 0.9715 ± 0.0063 |
| GGTTATGTGT | 0.964 ± 0.014 |
| GGTTATTGGG | 0.98 ± 0.075 |
| GGTTATTGGT | 1.02 ± 0.021 |
| GGTTATTTA | 0.992 ± 0.035 |
| GGTTCAAGGT | 0.994 ± 0.027 |
| GGTTCAGGGC | 1.02 ± 0.047 |
| GGTTCATTTT | 1.01 ± 0.025 |
| GGTTCGAGAG | 0.964 ± 0.012 |
| GGTTCGGATC | 0.99316 ± 0.00058 |
| GGTTCGGCGG | 1.01 ± 0.045 |
| GGTTCGTCTG | 0.981 ± 0.021 |
| GGTTGAAAGT | 1.48 ± 0.69 |
| GGTTGAAGGT | 1 ± 0.03 |
| GGTTGACGAG | 0.986 ± 0.012 |
| GGTTGACTTA | 1.03 ± 0.011 |
| GGTTGAGATG | 0.982 ± 0.014 |
| GGTTGAGCGG | 0.993 ± 0.011 |
| GGTTGAGCTG | 0.945 ± 0.056 |
| GGTTGAGGTT | 1.04 ± 0.022 |
| GGTTGCAAGA | 1.01 ± 0.015 |
| GGTTGCACGC | 1.01 ± 0.0046 |
| GGTTGCAGCT | 0.975 ± 0.018 |

| Sequence | switch fluorescence ratio |
| --- | --- |
| GGTTGCCATA | 0.944 ± 0.025 |
| GGTTGCGCTT | 1.29 ± 0.39 |
| GGTTGGCCGT | 1.03 ± 0.051 |
| GGTTGGGATG | 0.951 ± 0.022 |
| GGTTGGGTTG | 0.987 ± 0.019 |
| GGTTGGTGGG | 0.969 ± 0.044 |
| GGTTGTATCG | 1 ± 0.05 |
| GGTTGTGCTT | 0.995 ± 0.0039 |
| GGTTTAAAGA | 1 ± 0.038 |
| GGTTTAAATG | 1.0317 ± 0.00089 |
| GGTTTAAGGC | 0.993 ± 0.047 |
| GGTTTAAGTT | 0.99 ± 0.03 |
| GGTTTAATAG | 0.986 ± 0.026 |
| GGTTTAATGT | 0.9927 ± 0.0098 |
| GGTTTAGGGG | 0.985 ± 0.032 |
| GGTTTAGTCA | 0.9719 ± 0.00067 |
| GGTTTATCGT | 0.974 ± 0.022 |
| GGTTTATGTT | 1 ± 0.019 |
| GGTTTATTGG | 1 ± 0.03 |
| GGTTTCATGA | 1.01 ± 0.026 |
| GGTTTCCGCC | 1.169 ± 0.0023 |
| GGTTTCGCCA | 0.9807 ± 0.0096 |
| GGTTTCGCTT | 1.03 ± 0.046 |

| Sequence | switch fluorescence ratio |
| --- | --- |
| GGTTTCGGGA | 1.01 ± 0.021 |
| GGTTTCTAAG | 1.01 ± 0.042 |
| GGTTTGAGTA | 1.02 ± 0.074 |
| GGTTTGCAGT | 1.003 ± 0.0093 |
| GGTTTGCTAG | 1.04 ± 0.072 |
| GGTTTGGATA | 0.985 ± 0.028 |
| GGTTTGGCGT | 0.981 ± 0.017 |
| GGTTTGGGCG | 1.03 ± 0.034 |
| GGTTTGGGCT | 0.983 ± 0.051 |
| GGTTTGGGGA | 0.983 ± 0.011 |
| GGTTTGGGGC | 1.03 ± 0.074 |
| GGTTTGGGTG | 0.995 ± 0.04 |
| GGTTTTAGGT | 0.988 ± 0.035 |
| GGTTTTATGA | 1.002 ± 0.0062 |
| GGTTTTGGGC | 1.02 ± 0.042 |
| GGTTTTGTAA | 0.982 ± 0.018 |
| GGTTTTGTTC | 1.09 ± 0.11 |
| GGTTTTGTTT | 0.9996 ± 0.0075 |
| GGTTTTTAAG | 0.995 ± 0.023 |
| GGTTTTTACA | 0.981 ± 0.024 |
| GGTTTTTATT | 0.992 ± 0.0092 |
| GGTTTTTCGG | 1.04 ± 0.014 |
| GGTTTTTGAG | 0.9564 ± 0.0045 |

| Sequence | switch fluorescence ratio |
| --- | --- |
| GGTTTTTGTA | 0.995 ± 0.025 |
| GGTTTTTTCT | 1.03 ± 0.088 |
| GTAAAAAGAG | 1 ± 0.011 |
| GTAAAAGTTG | 1 ± 0.026 |
| GTAAAGAAAA | 1.05 ± 0.081 |
| GTAAAGTTTT | 0.991 ± 0.018 |
| GTAAATTAGT | 1.02 ± 0.04 |
| GTAAATTATG | 0.986 ± 0.018 |
| GTAAATTGTG | 1.01 ± 0.047 |
| GTAAATTTTT | 1.01 ± 0.017 |
| GTAACTGCAG | 0.993 ± 0.051 |
| GTAAGATGTG | 1.03 ± 0.028 |
| GTAAGGAAAG | 1.04 ± 0.062 |
| GTAAGGATGT | 0.988 ± 0.038 |
| GTAAGGCGCA | 0.9885 ± 0.0086 |
| GTAAGGGTTG | 0.961 ± 0.012 |
| GTAAGTGAGT | 0.994 ± 0.037 |
| GTAATAATGG | 0.988 ± 0.053 |
| GTAATAGAGG | 0.9774 ± 0.0096 |
| GTAATAGTTT | 1 ± 0.036 |
| GTAATATTTC | 0.992 ± 0.027 |
| GTAATGGGCA | 1.03 ± 0.054 |
| GTAATTATGT | 1.02 ± 0.016 |

| Sequence | switch fluorescence ratio |
| --- | --- |
| GTAATTGGAG | 0.992 ± 0.016 |
| GTAATTTGTT | 1.01 ± 0.014 |
| GTACCTATCG | 1.01 ± 0.03 |
| GTACGAAGTT | 0.973 ± 0.013 |
| GTACGAGGGG | 0.992 ± 0.016 |
| GTACGCGGAC | 1.07 ± 0.022 |
| GTACTGTCTC | 0.9929 ± 0.0049 |
| GTACTTGGTC | 1.03 ± 0.048 |
| GTAGAAACGC | 0.998 ± 0.01 |
| GTAGAAAGGA | 2.3 ± 1.8 |
| GTAGCTGCGG | 1.02 ± 0.038 |
| GTAGCTTTGG | 1.04 ± 0.027 |
| GTAGGAAGTG | 0.9935 ± 0.0091 |
| GTAGGACTTG | 0.953 ± 0.025 |
| GTAGGAGGAG | 0.991 ± 0.032 |
| GTAGGCATGG | 1 ± 0.029 |
| GTAGGGAGTT | 0.977 ± 0.012 |
| GTAGGGGCGG | 1.0124 ± 0.00012 |
| GTAGGGGGAC | 1.05 ± 0.099 |
| GTAGGGTAAG | 0.988 ± 0.039 |
| GTAGTAAGGC | 2.23 ± 0.54 |
| GTAGTACCGG | 1.02 ± 0.028 |
| GTAGTAGGGC | 1.06 ± 0.016 |

| Sequence | switch fluorescence ratio |
| --- | --- |
| GTAGTAGGGG | 0.999 ± 0.015 |
| GTAGTATGAG | 0.999 ± 0.014 |
| GTAGTATGCA | 1.01 ± 0.02 |
| GTAGTGAGCT | 0.999 ± 0.05 |
| GTAGTGGCGA | 1.04 ± 0.026 |
| GTAGTTATGG | 1.04 ± 0.03 |
| GTAGTTTTGT | 0.987 ± 0.032 |
| GTATAAACCC | 1.03 ± 0.019 |
| GTATAATGAT | 0.977 ± 0.03 |
| GTATATCTGT | 1.01 ± 0.052 |
| GTATCATGCC | 1.01 ± 0.011 |
| GTATCCAGGG | 1.13 ± 0.036 |
| GTATCTTGGG | 1.04 ± 0.042 |
| GTATGATTCG | 0.9843 ± 0.0051 |
| GTATGGGGGG | 0.985 ± 0.026 |
| GTATGGTCGG | 0.9991 ± 0.0074 |
| GTATGTACTG | 1.04 ± 0.04 |
| GTATGTTGGG | 1.08 ± 0.045 |
| GTATTCAGTA | 0.995 ± 0.022 |
| GTATTCGTTT | 1 ± 0.028 |
| GTATTGCCAG | 0.995 ± 0.029 |
| GTATTGGGGC | 0.9807 ± 0.0029 |
| GTATTTCATA | 1.01 ± 0.0031 |

| Sequence | switch fluorescence ratio |
| --- | --- |
| GTATTTTTAG | 0.993 ± 0.033 |
| GTCACCCTTT | 1.01 ± 0.014 |
| GTCACCGACT | 1 ± 0.013 |
| GTCAGAGAGT | 1.02 ± 0.013 |
| GTCAGGATTT | 0.9925 ± 0.0087 |
| GTCAGGCTGA | 0.97427 ± 0.00022 |
| GTCAGGGCGA | 0.9931 ± 0.0023 |
| GTCAGGGGGT | 1.04 ± 0.068 |
| GTCAGGGTAC | 1.09 ± 0.072 |
| GTCAGTGAAT | 0.988 ± 0.057 |
| GTCATAGTGG | 0.9804 ± 0.003 |
| GTCATTTAAG | 0.991 ± 0.019 |
| GTCCAAGGGG | 1.04 ± 0.032 |
| GTCCGAAGGC | 0.988 ± 0.014 |
| GTCCGGCTCG | 0.9897 ± 0.0011 |
| GTCCTTTGCC | 1.06 ± 0.011 |
| GTCGAAAGGA | 0.9634 ± 0.0078 |
| GTCGAGGAAT | 1.003 ± 0.0092 |
| GTCGAGGGGA | 1.01 ± 0.035 |
